Reference: the nanobody polyreactivity screen of Harvey et al. (2022)

Assay: yeast display, Sf9 membrane polyspecificity reagent, FACS + sequencing; frameworks hold sequencing errors
How it was run: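 A synthetic nanobody library was expressed on Saccharomyces cerevisiae BJ5465 by galactose induction for 36–48 hours. The library was stained for 1 hour at 4 °C with 10% biotinylated, detergent-solubilized Sf9 membrane reagent and enriched with streptavidin microbeads before FACS. Low and high (top ~1%) gates were set on anti-HA fluorescence for expression and streptavidin fluorescence for reagent binding, and each polyreactivity label reflects the gate of origin.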

| Sequence | polyreactivity (PSR sort gate) |
| --- | --- |
| QVQLVESGGGLVQAGGSLRLSCAASGSTFPPYAMGRYRQAPGKERELVAAIDWSDGTTYYADSVKGRFTISRDYAKNTVYLQMNSLKPEDTAVYYCAGSLSQSEYDYWGQGTQVTVSS | low polyreactivity |
| QVQLVESGGGLVQAGGSLRLSCAASGSTFPPYAMGWYRQAPGKEREFVARISWTGGSTYYADSVKGRFTISRDNAKNTVYLQMNCLKPEDTAVYYCAAKSYWGQGTQVTVSS | high polyreactivity |
| QVQLVESGGGLVQAGGSLRLSCAASGSTFPPYAMGWYRQAPGKERELVADITRRGASTYYADSVKGRFTISRDNAKNTVYLQMNSLKPEDTAVYYCNAGRSRRYRIGRYYYWGQGTQVTVSS | high polyreactivity |
| QVQLVESGGGLVQAGGSLRLSCAASGSTFPQNVMGWYRQAPGKERELVAAITRSAGSTYYADSVKGRFTISRDNAKNTVYLQMNSLKPEDTAVYYCNTGRQRGDGWGQGTQVTVSS | high polyreactivity |
| QVQLVESGGGLVQAGGSLRLSCAASGSTFPQYAMGWYRQAPGKERELVAAISFSGGSTYYADSVKGRFTISRDNAKNTVYLQMNSLKPEDTAVYYCAAELGLAQYYYWGQGTQVTVSS | low polyreactivity |
| QVQLVESGGGLVQAGGSLRLSCAASGSTFPRNAMVWYIQAPGKERELVAAISRRGGSTYYADSVKGLFTISRDNAKNTVYLQMNSLKPEDTAVYYCAAATRYAIYGRYSRYDYWGQGTQVTVSS | high polyreactivity |
| QVQLVESGGGLVQAGGSLRLSCAASGSTFPRYAMGWYRQAPGKERELVAAMSSSGGRTYYADSVKGRFTISRDNAKNTVYLQMNSLKPEDTAVYYCAARAFKTIIYDYWGQGTQVTVSS | high polyreactivity |
| QVQLVESGGGLVQAGGSLRLSCAASGSTFPSNAMGWYRQAPGKERELVAAIRGRGGSTYYADSVKGRFTISRDNAKNTVYLQMNSLKPEDTAVYYCAKKVRSYVRWEYDYWGQGTQVTVSS | low polyreactivity |
| QVQLVESGGGLVQAGGSLRLSCAASGSTFPSNVMGWYRQAPGKERELVAAITWSGGRTYYADSVKGRFTISRDNAKNTVYLQMNSLKPEDTAVYYCAVRSSYVRYDYWGKGTQVTVSS | high polyreactivity |
| QVQLVESGGGLVQAGGSLRLSCAASGSTFPSYAMGWYRPAPGKERELVAAINSGGGTNYADSVKGRFTISRDNAKNTVYLQMNSLKPEDTAVYYCAKSRYEYTKTEGGYWGQGTQVTVSS | low polyreactivity |
| QVQLVESGGGLVQAGGSLRLSCAASGSTFPSYAMGWYRQAPGKERELVAAINSGGGTNYADSVKGRFTISRDNAKNTVYLQMNSLKPEDTAVYYCAKSRYDYNKTEGGYWGQGTQVTVSS | low polyreactivity |
| QVQLVESGGGLVQAGGSLRLSCAASGSTFPSYTMGWYRLAPGKERELVAAITLSGGSTYYADSVKGRFTISRDKAKNTVSLQMNSQKPEDTAVYYCAAYSQRGYDYWGQGTQVTVSS | low polyreactivity |
| QVQLVESGGGLVQAGGSLRLSCAASGSTFPTNAMGWYRQAPGKERELVATITSTGSTKYADSVKGRFTISRDNAKNTVYLQMNSLKPEDTAVYYCAADEYAYASRFYWALIHDYWGQGTQVTVSS | low polyreactivity |
| QVQLVESGGGLVQAGGSLRLSCAASGSTFPTYAMGWYRQAPGKERELVAAISRSGGRTYYADSVKGRFTISRDNAKNTVYLQMNSLKPEDTAVYYCAAQYRLSGGYNYDYWGQGTQVTVSS | high polyreactivity |
| QVQLVESGGGLVQAGGSLRLSCAASGSTFPVNAMGWYRQAPGKERELVATIRWTGGGTYYADSVKGRFTISRDNAKNTVYLQMNSLKPEDTAVYYCAADPPWEWSDYGYDYWGQGTQVTVSS | low polyreactivity |
| QVQLVESGGGLVQAGGSLRLSCAASGSTFPVNTMGWYRQAPGKERELVAAISSDDNTNYADSVKGRFTISRDNAKNTVYLQMNSLKPEDTEVYYCAVKGHPAYVEVPPRYAWEFDYWGQGTQVTVSS | low polyreactivity |
| QVQLVESGGGLVQAGGSLRLSCAASGSTFPVYVMGWYRPAPGKERELVAAITRSGGSTYYADSVKGRFTISRDNAKNTVYLQMNSLKPEDTAVYYCNKDVWDGYDWPEFDYWGQGTQVTVSS | low polyreactivity |
| QVQLVESGGGLVQAGGSLRLSCAASGSTFPWYAMGWYRQAPGKEREVVAAISSSGGSTYYADSVKGRFTISRDKAKNTVYLQMNSLKPEDTAVYYCNAQHPGYYWGYDYWGQGTQVTVSS | high polyreactivity |
| QVQLVESGGGLVQAGGSLRLSCAASGSTFPYNAMGWYRQAPGKERELVAAITWRAGRTYYADSVKGRFTISRDNAKITVYLHMNSLKAEDTAVYYCAKSYQRGVNHYEYWGQGTQVTVSS | high polyreactivity |
| QVQLVESGGGLVQAGGSLRLSCAASGSTFPYNAMGWYRQAPGKERELVASISRRGGSTYYADSVKGRFTISRDNAKNTVYLQMNSLKPEDTAVYYCNASGGPYRYYYWGQGTQVTVSS | low polyreactivity |
| QVQLVESGGGLVQAGGSLRLSCAASGSTFPYNAMGWYRQAPGKEREMVAAITYSGGSTYYADSVKGRFTISRDNAKNTVYLQMNSLKPEDTAVYYCNADDSTTYDYWGQGTQVTVSS | low polyreactivity |
